Laboratory results taken from paper PMC10212922, “A blocking monoclonal antibody reveals dimerization of intracellular domains of ALK2 associated with genetic disorders” (Nature Communications, 2023).
Changes are numbered by the printed parent chain.

What was measured:
[1] = biological target: T1, His-tagged and Fc-tagged human ALK2 protein (Sino Biological) (Homo sapiens, UniProt Q04771); test: SPR; BIAcore T200; anti-histidine antibody immobilised on a CM5 chip, His- and Fc-tagged ALK2 (10 μg/ml) captured; antibody 0.195-50 nM injected, single-cycle kinetics, 300 s association, 1800 s dissociation, 30 μl/min; bivalent analyte model; the methods speak of avidity; details: both partners purified
T1 construct: activin receptor-like kinase 2 (ALK2), human; source: bought: Sino Biological Inc

[2] = biological target: T2, His-tagged and Fc-tagged mouse ALK2 protein (Sino Biological) (Mus musculus, UniProt P37172); test: as above; details: both partners purified
T2 construct: activin receptor-like kinase 2 (ALK2), mouse, extracellular domain; also called 6x His-tagged mouse ALK2 ECD fused to human IgG Fc; source: bought: Sino Biological Inc

[3] = biological target: T3, His-tagged and Fc-tagged human ALK2 protein (Sino Biological) (human, UniProt Q04771 21-123); test: SPR
T3 chain: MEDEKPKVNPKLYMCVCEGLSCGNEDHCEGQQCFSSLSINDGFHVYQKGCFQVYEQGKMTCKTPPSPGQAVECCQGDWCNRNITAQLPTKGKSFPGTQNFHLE

[4] = biological target: T4, His-tagged and Fc-tagged mouse ALK2 protein (Sino Biological) (mouse, UniProt P37172 21-123); test: SPR
T4 chain: T3 chain with M1V, P10Q

V5-tagged mouse ALK2 = V5-tagged mouse ALK2 (mouse, UniProt P37172); test: cell-based or functional assay
Chain of V5-tagged mouse ALK2 (P37172 21-509): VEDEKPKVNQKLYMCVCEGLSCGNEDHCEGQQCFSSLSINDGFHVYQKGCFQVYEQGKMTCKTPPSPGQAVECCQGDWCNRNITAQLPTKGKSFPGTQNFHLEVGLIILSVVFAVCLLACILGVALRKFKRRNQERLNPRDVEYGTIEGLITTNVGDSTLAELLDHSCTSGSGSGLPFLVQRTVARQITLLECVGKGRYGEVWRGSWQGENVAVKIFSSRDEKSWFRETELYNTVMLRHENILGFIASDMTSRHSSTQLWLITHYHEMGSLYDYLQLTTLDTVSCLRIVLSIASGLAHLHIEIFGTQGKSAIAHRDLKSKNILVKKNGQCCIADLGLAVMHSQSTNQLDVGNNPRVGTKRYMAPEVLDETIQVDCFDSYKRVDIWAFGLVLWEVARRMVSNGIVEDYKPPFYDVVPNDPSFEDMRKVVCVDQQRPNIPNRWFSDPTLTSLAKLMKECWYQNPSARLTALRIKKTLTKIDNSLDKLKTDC

Kd [1]: 5.6 nM
Kd [2]: 5.1 nM
koff [3]: 0.00576 s⁻¹
koff [4]: 0.00563 s⁻¹
IC50 of Rm0443 against ALP activity induced by 300 ng/ml BMP7 in C2C12 cells (endogenous ALK2), day 3 (V5-tagged mouse ALK2): 0.017 µg/mL
IC50 of Rm0443 against BMP-specific luciferase reporter activity induced by 300 ng/ml BMP7 in C2C12 cells (endogenous ALK2), overnight (V5-tagged mouse ALK2): 0.216 µg/mL
B1: Rm0443, rat anti-ALK2 monoclonal antibody clone #0443 (antibody, V domains shown)
VH: EVQLVESGGGLVQPGRSLKLSCLASGSTFSNYGMKWIRQAPGKGLEWVASISRSSTYIYYADTVKGRFTISRDNARNTLYLQMTSLRSEDTALYYCAAAISTPFYWYFDFWGPGTVVTVSS
VL: EIVLTQSPTTMAASPGEKVTLNCLASSSVSYMTWYQQKSGASPKLWIYGTSNLASGVPNRFSGSGSGTSYSLAISSMEAEDVATYYCLHLTSYPPYTFGAGTKLELK
notes: variable region as in the heavy chain of the chimeric Fab m2 (PDB 7YRU); variable region as in the light chain of the chimeric Fab m2 (PDB 7YRU); Whole rat IgG from the hybridoma; PDB 7YRU holds the rat variable regions on human IgG1 kappa constant regions; source: rat hybridoma, purified from serum-free conditioned medium (protein G column)
